Tests used:
[1] = test system: GATA-1 transcription (human GATA-1 promoter); experiment: GATA-1 reporter gene assay in HEL cells; format: cell-based; conditions: 10 μg expression plasmid
Procedure: Using 15 μg of pGL3-HSI-IE Pro and 10 μg of a plasmid for the expression of various HDACs or HDAC variants, 8.75×10^6 HEL cells (accession number JCRB0062, JCRB) were transformed by the electroporation method (BIO-RAD, Gene Pulser II, voltage 1750 V, charge 10 μF, 365 μL). After transformation, 2 mL of 10% FBS RPMI 1640 was added, and this mixture was dispensed to a 96-well white plate in a ratio of 50 μL/well. After cultivation under conditions of 37° C., 5% CO2 and saturated humidity for 3 hours, 10% FBS RPMI 1640 medium was added at 50 μL/well. After cultivation under conditions of 37° C., 5% CO2 and saturated humidity for 8 hours, luciferase activity in cells were measured according to the manual of the Bright-Glo Luciferase Assay System, and GATA-1 transcriptional activity was measured using a multi-label counter.
(§1) A mixture of four kinds of HDAC4-targeted siRNA, i.e., siGENE HDAC4 SMARTpool (manufactured by Dharmacon Inc., marketed by B-Bridge international Inc., code number M-003497-00-05), or Non-specific Control Duplex IX (47% GC content) (manufactured by Dharmacon Inc., marketed by B-Bride international Inc., code number D-001206-09-20), and pGL3 IL2 Pro43 were transfected to Jurkat cells by the electroporation method using the same conditions as those mentioned above, and IL-2 transcriptional activity was measured. […]

[2] = test system: IL-2 transcription (human IL-2 promoter); experiment: IL-2 reporter gene assay in Jurkat cells; format: cell-based
Procedure: To 1 μg of the plasmid pGL3 IL2 Pro43, which has a human IL-2 promoter sequence (the −674 to +54 region in the vicinity of the transcription initiation site) upstream of the firefly luciferase gene, and 6 μg of pRL-TK (Promega), the plasmids for the expression of wild-type HDAC4 or each of HDAC4 dominant negative variants (H802K, H803L, H863L) prepared in Example 3 was mixed in various ratios (1, 3 and 10 μg), and 1×10^7 Jurkat cells (ATCC, TIB-152) were transformed by the electroporation method (BIO-RAD, Gene Pulser II, voltage 300 V, charge 975 μF, 400 μL).
After transformation, 2.5 mL of RPMI 1640 containing 10% FBS (MOREGATE) (10% FBS RPMI 1640) was added, and this mixture was dispensed to a 96-well white plate in a ratio of 50 μL/well. After cultivation under conditions of 37° C., 5% CO2 and saturated humidity for 10 hours, a liquid mixture of Phorbol 12-Myristate 13-Acetate (PMA, SIGMA), Ionomycin (SIGMA) and Anti-CD28 antibody (Pharmingen) in 10% FBS RPMI 1640 was added at 50 μL/well (the final concentrations were 50 ng/mL, 1 μg/mL and 75 ng/mL, respectively) to stimulate the Jurkat cells. After cultivation under conditions of 37° C., 5% CO2 and saturated humidity for 12 hours, luciferase activity in the cells was measured according to the manual of the Bright-Glo Luciferase Assay System (Promega) using a multi-label counter (1420 MULTILABEL COUNTER ARVO SX, WALLAC).
1×10^7 Jurkat cells (ATCC, TIB-152) were transformed with 10 μg of a plasmid for the expression of various HDACs or HDAC variants by the electroporation method (BIO-RAD, Gene Pulser II, voltage 300 V, charge 975 μF, 400 μL). […] After cultivation under conditions of 37° C., 5% CO2 and saturated humidity for 12 hours, luciferase activity in cells were measured according to the manual of the Bright-Glo Luciferase Assay System (Promega), and IL-2 transcriptional activity was measured using a multi-label counter (1420 MULTILABEL COUNTER ARVO SX, WALLAC).
as §1, with “measured. Likewise, siGENE HDAC4 SMARTpool or Non-specific Control Duplex IX, and pGL3-HSI-IE Pro were transfected to HEL cells, and GATA-1 transcriptional activity was measured.” for “measured.”

histone = experiment: HDAC activity with [3H]-labeled acetylated histone as a substrate; format: biochemical, human; conditions: expressed in 293T cells, crudely purified; compared to wild-type HDAC4
Procedure: 7 μg of a plasmid for the expression of wild-type HDAC4 and HDAC4 dominant negative variants (H802K, H803L, H863L) was transfected to 293T cells by the calcium phosphate method; 48 hours later, whole cell lysate (cells were disrupted in 25 mM Tris, pH 7.4, 150 mM NaCl, 1 mM CaCl2, 1% Triton X-100, and cell debris was removed by centrifugation) was crudely purified using an anti-Flag antibody column (SIGMA, anti-Flag M2-agarose) (washed with TBS, then eluted with 0.1M Glysine-HCl, pH 3.5), and used for the measurement of HDAC activity. The reaction substrate used was a [^3H]-labeled acetylated histone prepared by cultivating Jurkat cells (2×10^8 cells) in 40 mL of an RPMI (SIGMA) medium containing 300 MBq [^3H] sodium acetate (NENTM Life Science Products, Inc.) for 2 hours, disrupting the cells in Lysis buffer, pH 6.5 (10 mM Tris-HCl, 50 mM Sodium Hydrogen sulfate, 1% Triton X-100, 10 mM MgCl2-6H2O, 8.6% Sucrose), washing the cells with Wash buffer (10 mM Tris-HCl, 13 mM EDTA), and then adding 0.4N H2SO4.

N-CoR and HDAC3 = experiment: Complex forming ability, anti-Flag purification and Western blotting; format: binding, human; conditions: expressed in PEAK Rapid cells; compared to wild-type HDAC4

B1: HDAC4 dominant negative variant (H863L): HDAC4 variant with H863L mutation, amino acid sequence SEQ ID NO:6, expressed from plasmid (protein, listed as Homo sapiens)
chain: MSSQSHPDGLSGRDQPVELLNPARVNHMPSTVDVATALPLQVAPSAVPMDLRLDHQFSLPVAEPALREQQLQQELLALKQKQQIQRQILIAEFQRQHEQLSRQHEAQLHEHIKQQQEMLAMKHQQELLEHQRKLERHRQEQELEKQHREQKLQQLKNKEKGKESAVASTEVKMKLQEFVLNKKKALAHRNLNHCISSDPRYWYGKTQHSSLDQSSPPQSGVSTSYNHPVLGMYDAKDDFPLRKTASEPNLKLRSRLKQKVAERRSSPLLRRKDGPVVTALKKRPLDVTDSACSSAPGSGPSSPNNSSGSVSAENGIAPAVPSIPAETSLAHRLVAREGSAAPLPLYTSPSLPNITLGLPATGPSAGTAGQQDTERLTLPALQQRLSLFPGTHLTPYLSTSPLERDGGAAHSPLLQHMVLLEQPPAQAPLVTGLGALPLHAQSLVGADRVSPSIHKLRQHRPLGRTQSAPLPQNAQALQHLVIQQQHQQFLEKHKQQFQQQQLQMNKIIPKPSEPARQPESHPEETEEELREHQALLDEPYLDRLPGQKEAHAQAGVQVKQEPIESDEEEAEPPREVEPGQRQPSEQELLFRQQALLLEQQRIHQLRNYQASMEAAGIPVSFGGHRPLSRAQSSPASATFPVSVQEPPTKPRFTTGLVYDTLMLKHQCTCGSSSSHPEHAGRIQSIWSRLQETGLRGKCECIRGRKATLEELQTVHSEAHTLLYGTNPLNRQKLDSKKLLGSLASVFVRLPCGGVGVDSDTIWNEVHSAGAARLAVGCVVELVFKVATGELKNGFAVVRPPGHHAEESTPMGFCYFNSVAVAAKLLQQRLSVSKILIVDWDVHHGNGTQQAFYSDPSVLYMSLLRYDDGNFFPGSGAPDEVGTGPGVGFNVNMAFTGGLDPPMGDAEYLAAFRTVVMPIASEFAPDVVLVSSGFDAVEGHPTPLGGYNLSARCFGYLTKQLMGLAGGRIVLALEGGHDLTAICDASEACVSALLGNELDPLPEKVLQQRPNANAVRSMEKVMEIHSKYWRCLQRTTSTAGRSLIEAQTCENEEAETVTAMASLSVGVKPAEKRPDEEPMEEEPPL
modifications: Dominant negative mutant (H863L) of human histone deacetylase-4 (HDAC4) gene
[1]
  GATA-1 transcriptional activity (luciferase): GATA-1 transcription suppression was not observed
[2]; Jurkat cells stimulated with PMA, Ionomycin, Anti-CD28 antibody, expression plasmid 1, 3 and 10 μg
  IL-2 transcriptional activity (luciferase): IL-2 transcription suppression depending on the expression level
[2]; Jurkat cells, 10 μg expression plasmid, compared with HDAC1 and HDAC3 variants
  IL-2 transcriptional activity (luciferase): IL-2 transcription suppression was observed
histone
  HDAC activity with histone as a substrate: decreased HDAC activity compared to wild-type HDAC4
N-CoR and HDAC3
  HDAC3 and N-CoR in the crudely purified fraction (complex forming ability): contained almost no HDAC3 or N-COR
